Assay results taken from the supplement of paper PMC6379048.

Legend:
Assay in all cases: EC50 of free RNA motif oligo competing protein binding to immobilised probe
DHX15 = DHX15 (UniProt O43143)
Protocol: (§1)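 Competition-binding assay: HEK293-FT cell lysate (2.5 mg protein) pre-incubated 1 h at 4°C with free motif-containing RNA oligos (0 to 30 µM, 12 doses), then pulled down with the same 5'-amino-C6 RNA oligos immobilised on NHS-Sepharose beads (30 min, 4°C). Bound proteins were quantified by label-free LC-MS/MS and normalised to the water control. EC50 came from a four-parameter log-logistic fit; Kd = EC50 x depletion factor. Random/reversed control probes are dropped.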

HNRNPUL1 = target: T1, HNRNPUL1 (UniProt Q9BUJ2)
T1 sequence: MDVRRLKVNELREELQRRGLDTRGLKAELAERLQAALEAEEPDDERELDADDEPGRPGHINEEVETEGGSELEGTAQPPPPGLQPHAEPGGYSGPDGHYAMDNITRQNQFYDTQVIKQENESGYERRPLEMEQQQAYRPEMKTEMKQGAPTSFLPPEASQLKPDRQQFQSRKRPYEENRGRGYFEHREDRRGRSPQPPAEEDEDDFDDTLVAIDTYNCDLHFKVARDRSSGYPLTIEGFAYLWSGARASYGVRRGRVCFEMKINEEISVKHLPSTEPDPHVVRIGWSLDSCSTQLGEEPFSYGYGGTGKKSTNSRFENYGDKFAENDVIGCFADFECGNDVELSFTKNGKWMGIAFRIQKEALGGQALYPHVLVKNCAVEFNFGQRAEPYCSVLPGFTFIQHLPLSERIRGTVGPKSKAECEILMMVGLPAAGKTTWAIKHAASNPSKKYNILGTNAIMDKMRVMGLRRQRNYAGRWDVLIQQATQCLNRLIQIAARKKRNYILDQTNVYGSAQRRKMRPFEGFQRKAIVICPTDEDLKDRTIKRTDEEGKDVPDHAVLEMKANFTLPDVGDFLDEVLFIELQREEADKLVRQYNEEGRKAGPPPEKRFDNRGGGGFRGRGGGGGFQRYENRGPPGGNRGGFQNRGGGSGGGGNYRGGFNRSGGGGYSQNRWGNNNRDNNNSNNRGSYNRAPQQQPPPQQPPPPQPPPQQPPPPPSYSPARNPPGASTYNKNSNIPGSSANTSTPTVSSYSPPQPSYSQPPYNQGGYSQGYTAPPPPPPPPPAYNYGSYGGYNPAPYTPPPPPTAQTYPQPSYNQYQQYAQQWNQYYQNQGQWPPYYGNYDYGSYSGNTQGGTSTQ
Protocol: as §1

ZC3HAV1 = ZC3HAV1 (UniProt Q7Z2W4)
Sequence of ZC3HAV1 (Q7Z2W4 whole entry): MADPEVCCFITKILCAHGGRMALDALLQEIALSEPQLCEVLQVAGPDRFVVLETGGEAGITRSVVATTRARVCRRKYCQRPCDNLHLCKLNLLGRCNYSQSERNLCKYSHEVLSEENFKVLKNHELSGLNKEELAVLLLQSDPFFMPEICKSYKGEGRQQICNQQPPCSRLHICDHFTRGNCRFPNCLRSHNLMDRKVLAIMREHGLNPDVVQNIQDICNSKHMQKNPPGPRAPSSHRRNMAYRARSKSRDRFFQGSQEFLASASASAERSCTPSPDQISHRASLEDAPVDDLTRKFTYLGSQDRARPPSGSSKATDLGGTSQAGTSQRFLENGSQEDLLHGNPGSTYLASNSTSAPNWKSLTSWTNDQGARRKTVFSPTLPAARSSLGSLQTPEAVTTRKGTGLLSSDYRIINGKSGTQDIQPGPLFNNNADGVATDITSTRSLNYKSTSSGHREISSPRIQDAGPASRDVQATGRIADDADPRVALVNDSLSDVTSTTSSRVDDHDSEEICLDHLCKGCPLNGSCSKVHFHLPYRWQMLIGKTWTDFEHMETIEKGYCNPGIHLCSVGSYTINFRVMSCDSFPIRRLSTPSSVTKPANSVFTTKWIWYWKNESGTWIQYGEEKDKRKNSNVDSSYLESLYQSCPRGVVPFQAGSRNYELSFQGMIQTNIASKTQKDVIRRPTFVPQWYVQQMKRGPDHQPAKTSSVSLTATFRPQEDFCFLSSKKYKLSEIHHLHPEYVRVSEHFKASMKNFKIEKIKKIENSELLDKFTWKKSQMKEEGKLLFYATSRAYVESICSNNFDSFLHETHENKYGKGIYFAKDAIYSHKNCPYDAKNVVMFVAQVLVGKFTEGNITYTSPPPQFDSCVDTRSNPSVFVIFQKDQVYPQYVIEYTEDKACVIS
Protocol: as §1

DHX36 = target: T2, DHX36 (UniProt Q9H2U1)
T2 sequence: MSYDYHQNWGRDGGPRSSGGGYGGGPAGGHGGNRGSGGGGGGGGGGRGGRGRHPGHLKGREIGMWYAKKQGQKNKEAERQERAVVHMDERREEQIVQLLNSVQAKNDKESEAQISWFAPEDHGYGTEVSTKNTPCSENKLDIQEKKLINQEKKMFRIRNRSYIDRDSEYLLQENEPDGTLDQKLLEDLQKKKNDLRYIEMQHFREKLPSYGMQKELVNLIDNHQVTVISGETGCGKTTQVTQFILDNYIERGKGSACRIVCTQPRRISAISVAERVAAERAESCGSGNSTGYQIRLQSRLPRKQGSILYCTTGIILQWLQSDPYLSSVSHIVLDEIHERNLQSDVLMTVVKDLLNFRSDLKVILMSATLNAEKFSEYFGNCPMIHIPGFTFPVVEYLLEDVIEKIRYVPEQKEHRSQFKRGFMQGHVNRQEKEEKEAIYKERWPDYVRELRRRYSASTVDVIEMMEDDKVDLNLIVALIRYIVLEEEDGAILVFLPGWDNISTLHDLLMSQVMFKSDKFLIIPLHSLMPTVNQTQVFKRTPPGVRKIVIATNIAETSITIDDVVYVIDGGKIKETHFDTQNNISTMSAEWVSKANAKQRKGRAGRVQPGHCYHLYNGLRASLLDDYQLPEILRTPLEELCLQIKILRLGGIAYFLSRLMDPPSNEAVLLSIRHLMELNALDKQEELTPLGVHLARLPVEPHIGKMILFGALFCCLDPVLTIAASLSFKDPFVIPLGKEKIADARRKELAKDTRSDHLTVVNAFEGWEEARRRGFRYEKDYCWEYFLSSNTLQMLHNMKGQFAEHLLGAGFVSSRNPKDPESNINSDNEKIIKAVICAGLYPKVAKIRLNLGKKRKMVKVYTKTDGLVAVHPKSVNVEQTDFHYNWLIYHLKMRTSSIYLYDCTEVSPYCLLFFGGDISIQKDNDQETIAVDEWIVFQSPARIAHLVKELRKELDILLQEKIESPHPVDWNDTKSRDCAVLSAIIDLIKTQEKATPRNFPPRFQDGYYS
Protocol: as §1

ZCCHC8 = target: T3, ZCCHC8 (UniProt Q6NZY4)
T3 sequence: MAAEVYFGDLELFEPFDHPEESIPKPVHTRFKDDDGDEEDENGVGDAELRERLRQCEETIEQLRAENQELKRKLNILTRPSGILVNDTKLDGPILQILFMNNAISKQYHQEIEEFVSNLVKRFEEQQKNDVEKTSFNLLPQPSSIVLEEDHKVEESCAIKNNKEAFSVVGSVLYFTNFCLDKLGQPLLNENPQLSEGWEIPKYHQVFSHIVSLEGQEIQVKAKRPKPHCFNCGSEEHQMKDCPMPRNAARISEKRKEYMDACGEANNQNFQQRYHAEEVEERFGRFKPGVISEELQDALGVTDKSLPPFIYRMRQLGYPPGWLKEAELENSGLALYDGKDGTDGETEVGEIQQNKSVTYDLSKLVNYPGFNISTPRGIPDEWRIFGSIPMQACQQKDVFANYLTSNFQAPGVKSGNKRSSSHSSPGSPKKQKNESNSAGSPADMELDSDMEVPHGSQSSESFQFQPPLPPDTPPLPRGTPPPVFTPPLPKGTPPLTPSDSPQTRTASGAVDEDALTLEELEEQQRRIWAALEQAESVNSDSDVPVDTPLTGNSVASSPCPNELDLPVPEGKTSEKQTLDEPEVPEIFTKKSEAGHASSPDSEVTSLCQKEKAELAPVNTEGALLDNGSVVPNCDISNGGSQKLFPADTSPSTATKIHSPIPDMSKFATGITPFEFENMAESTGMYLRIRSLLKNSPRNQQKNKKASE
Protocol: as §1

Sequence of DHX15 (O43143 whole entry): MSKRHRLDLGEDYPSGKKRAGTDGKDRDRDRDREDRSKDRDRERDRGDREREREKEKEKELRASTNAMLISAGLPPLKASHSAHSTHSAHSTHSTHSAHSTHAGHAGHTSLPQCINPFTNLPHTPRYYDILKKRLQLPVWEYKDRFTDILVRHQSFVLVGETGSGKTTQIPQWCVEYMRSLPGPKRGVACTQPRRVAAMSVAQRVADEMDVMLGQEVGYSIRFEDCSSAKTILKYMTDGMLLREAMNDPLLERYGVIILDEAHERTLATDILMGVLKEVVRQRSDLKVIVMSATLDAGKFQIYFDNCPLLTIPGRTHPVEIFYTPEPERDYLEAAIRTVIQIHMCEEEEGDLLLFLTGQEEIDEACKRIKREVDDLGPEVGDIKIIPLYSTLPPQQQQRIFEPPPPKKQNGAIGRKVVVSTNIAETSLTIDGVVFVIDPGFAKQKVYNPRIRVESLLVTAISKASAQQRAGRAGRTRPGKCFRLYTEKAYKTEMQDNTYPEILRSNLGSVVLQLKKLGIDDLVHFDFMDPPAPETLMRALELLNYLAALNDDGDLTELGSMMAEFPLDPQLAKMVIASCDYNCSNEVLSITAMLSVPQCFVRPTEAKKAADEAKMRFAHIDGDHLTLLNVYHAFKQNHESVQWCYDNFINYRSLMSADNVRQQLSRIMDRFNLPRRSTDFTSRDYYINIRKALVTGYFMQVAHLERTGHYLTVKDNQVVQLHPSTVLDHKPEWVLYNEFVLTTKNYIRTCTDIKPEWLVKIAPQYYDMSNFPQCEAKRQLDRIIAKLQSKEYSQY

| Sequence | EC50 (DHX15) [nM] | EC50 (HNRNPUL1) [nM] | EC50 (ZC3HAV1) [nM] | EC50 (DHX36) [nM] | EC50 (ZCCHC8) [nM] |
| --- | --- | --- | --- | --- | --- |
| CUGUCCU | 757 | 152 | 1320 | 5030 | 3110 |
| AAUAAA | 2150 | 1410 | 3900 | 3290 | 2460 |
| UAUUUAU | 576 | 643 | 5380 | 1010 | 615 |
